Measured values: US11180789B2, “Method for bioconversion of mogroside extracts into siamenoside I” (National Taiwan University, priority 2019, dated 2021)
Blank lines part the entries; values can stand above or below the molecule they belong to.

Tests used:
[1] = relative to 5% sucrose in water; cited from earlier work
[2] = molecular target: T1, recombinant ScExg1 (rScExg1), Exg1p of Saccharomyces cerevisiae (Saccharomyces cerevisiae, UniProt P23776); test: Enzyme kinetics of recombinant ScExg1 on oNPG and pNPG substrates (β-glucosidase activity); type: biochemical; conditions: pNP/oNP release at 405 nm
T1 sequence (P23776 41-448): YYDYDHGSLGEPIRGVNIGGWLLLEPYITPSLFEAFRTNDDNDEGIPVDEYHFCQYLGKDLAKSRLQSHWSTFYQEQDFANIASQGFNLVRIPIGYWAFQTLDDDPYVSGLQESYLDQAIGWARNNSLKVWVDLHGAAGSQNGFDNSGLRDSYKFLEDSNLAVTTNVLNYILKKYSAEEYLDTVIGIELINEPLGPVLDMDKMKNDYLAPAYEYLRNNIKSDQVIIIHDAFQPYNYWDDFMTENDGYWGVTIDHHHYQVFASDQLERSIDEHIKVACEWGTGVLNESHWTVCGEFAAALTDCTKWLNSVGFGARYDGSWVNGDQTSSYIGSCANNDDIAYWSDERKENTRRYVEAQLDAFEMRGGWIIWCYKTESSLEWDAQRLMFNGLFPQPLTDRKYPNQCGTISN
Description: The optimal conditions for β-glucosidase activity were determined. The optimum pH was obtained by monitoring enzyme activity at a range of pH levels (from pH 3 to pH 9) in the reaction buffer. Incubation was carried out at 60° C. for 30 min. To analyze enzyme stability, the same buffer system and pH range were used, however, the reactions were performed at 4° C. for 1 h. The optimum temperature was determined in 20 mM acetate buffer at pH 5 in a range of temperatures from 20° C. to 90° C. For temperature stability analysis, β-glucosidase was extracted and activity was monitored following 1 h incubation in 20 mM acetate buffer, pH 5. […] The f-glucosidase activity was determined by measuring the levels of p-nitrophenol (pNP) or o-nitrophenol (oNP) released from pNPG or oNPG after the glucose was hydrolyzed by glucosidase. The released pNP or oNP was detected at a wavelength of 405 nm and calibrated with standard curves. […]
(§1) To evaluate the preferred pH, preferred temperature and hydrolyzing capability of rDbExg1, we used pNPG substrates and compared the results with ScExg1. rDbExg1 retained half of its activity over a pH range of 3.0 to 7.0 and was stable at pH 5.0-7.0. […] The Michaelis constant (Km) and maximum velocity (Vmax) of rDbExg1 and rScExg1 were also compared and calculated (Table 3). […]

[3] = substrate: O=[N+]([O-])c1ccccc1O[C@@H]1O[C@H](CO)[C@@H](O)[C@H](O)[C@H]1O; test: purified protein, by the assay type; conditions: other: rDbExg1, substrate 10 mM, acetate buffer, pH 5, 60° C., pNP/oNP release at 405 nm
[4] = substrate: O=[N+]([O-])c1ccc(O[C@@H]2O[C@H](CO)[C@@H](O)[C@H](O)[C@H]2O)cc1; test: Enzyme kinetics of recombinant DbExg1 on oNPG and pNPG substrates (β-glucosidase activity); type: biochemical, Dekkera bruxellensis; conditions: other: rDbExg1, substrate 10 mM, acetate buffer, pH 5, 60° C., pNP/oNP release at 405 nm
Source text: Exg1-like β-glucosidase from Dekkera bruxellensis (DbExg1) was cloned with the Gateway cloning system. Briefly, the coding region of DbExg1 was first amplified by PCR. The forward primer was
underline indicates gene coding region). Genomic DNA extracted from D. bruxellensis was used as the template. Yeast expression vectors (pYES-DEST52) were further introduced to generate galactose-inducible plasmids carrying the correct DbExg1 sequence. The yeast vectors were then amplified and transformed into Exg1-deleted S. cerevisiae (exg1Δ mutants) for the galactose-induced DbExg1 protein expression assay. DbExg1 gene was also integrated into (exg1Δ mutants) with a GPD promoter. For protein purification, the culture media was concentrated with a 30 kDa MWCO (molecular weight cutoff) ultrafiltration membrane (Vivaspin 20, GE Co., Taipei, Taiwan). The extracellular protein concentrates were purified by Ni^2+-affinity chromatography. Protein homogeneity in each fraction was assessed by SDS-PAGE and silver staining.
The optimal conditions for β-glucosidase activity were determined. The optimum pH was obtained by monitoring enzyme activity at a range of pH levels (from pH 3 to pH 9) in the reaction buffer. Incubation was carried out at 60° C. for 30 min. To analyze enzyme stability, the same buffer system and pH range were used, however, the reactions were performed at 4° C. for 1 h. The optimum temperature was determined in 20 mM acetate buffer at pH 5 in a range of temperatures from 20° C. to 90° C. For temperature stability analysis, β-glucosidase was extracted and activity was monitored following 1 h incubation in 20 mM acetate buffer, pH 5. […] The enzyme and substrate mixture were incubated under optimum enzymatic reactions conditions of 60° C., pH 5. The f-glucosidase activity was determined by measuring the levels of p-nitrophenol (pNP) or o-nitrophenol (oNP) released from pNPG or oNPG after the glucose was hydrolyzed by glucosidase. The released pNP or oNP was detected at a wavelength of 405 nm and calibrated with standard curves. Mogroside conversion was stopped by the addition of one volume of pure methanol at specific time points. The converted products were then purified for HPLC-MS/MS analysis. […]
as §1

[5] = β-Glucosidase activity, pH and temperature optimum and stability of recombinant Exg1 proteins on pNPG; type: biochemical
Description: (§2) The optimal conditions for β-glucosidase activity were determined. The optimum pH was obtained by monitoring enzyme activity at a range of pH levels (from pH 3 to pH 9) in the reaction buffer. Incubation was carried out at 60° C. for 30 min. To analyze enzyme stability, the same buffer system and pH range were used, however, the reactions were performed at 4° C. for 1 h. The optimum temperature was determined in 20 mM acetate buffer at pH 5 in a range of temperatures from 20° C. to 90° C. For temperature stability analysis, β-glucosidase was extracted and activity was monitored following 1 h incubation in 20 mM acetate buffer, pH 5. […] The enzyme and substrate mixture were incubated under optimum enzymatic reactions conditions of 60° C., pH 5. The f-glucosidase activity was determined by measuring the levels of p-nitrophenol (pNP) or o-nitrophenol (oNP) released from pNPG or oNPG after the glucose was hydrolyzed by glucosidase. The released pNP or oNP was detected at a wavelength of 405 nm and calibrated with standard curves. Mogroside conversion was stopped by the addition of one volume of pure methanol at specific time points. The converted products were then purified for HPLC-MS/MS analysis.

[6] = substrate: O=[N+]([O-])c1ccc(O[C@@H]2O[C@H](CO)[C@@H](O)[C@H](O)[C@H]2O)cc1; test: Enzyme kinetics of recombinant ScExg1 on oNPG and pNPG substrates (β-glucosidase activity); type: biochemical, Saccharomyces cerevisiae; conditions: other: rScExg1; pNP/oNP release at 405 nm
Description: as §2
(§3) Because mogrosides are known to be hydrolyzed by Exg1p in S. cerevisiae (ScExg1), we hypothesized that an Exg1-like glucan-β-glucosidase in D. bruxellensis (DbExg1) might be responsible for the observed mogroside conversion. To test this hypothesis, DbExg1 was cloned with a galactose-induced promoter sequence and six-histidine tag (6×His) at the C-terminus of the gene. The plasmids were transformed and expressed in S. cerevisiae as previously described. […] The recombinant DbExg1 (termed rDbExg1) was purified by Ni^2+-affinity chromatography (data not shown).
(§4) To evaluate the preferred pH, preferred temperature and hydrolyzing capability of rDbExg1, we used pNPG substrates and compared the results with ScExg1. rDbExg1 retained half of its activity over a pH range of 3.0 to 7.0 and was stable at pH 5.0-7.0. The optimum pH was 5.0 in a sodium phosphate buffer system (FIG. 3C). […] The optimum temperature for rDbExg1 was 60° C. However, the enzyme only retained 40% of its activity after incubation at 60° C. for 30 min. […] (FIG. 3B). Both ScExg1 and rDbExg1 were stable at temperatures below 50° C. (FIGS. 3B and D). The Michaelis constant (Km) and maximum velocity (Vmax) of rDbExg1 and rScExg1 were also compared and calculated (Table 3).
(§5) Table 3: Kinetic parameters of recombinant DbExg1 and ScExg1 proteins on oNPG and pNPG substrates (4) Enzymatic Hydrolysis of Mogrosides

[7] = substrate: O=[N+]([O-])c1ccccc1O[C@@H]1O[C@H](CO)[C@@H](O)[C@H](O)[C@H]1O; test: as above; type: biochemical, Saccharomyces cerevisiae; conditions: other: rScExg1; pNP/oNP release at 405 nm
Description: as §2, §3, §4, §5

Molecule: C[C@H](CC[C@@H](O[C@@H]1O[C@H](CO)[C@@H](O)[C@H](O)[C@H]1O[C@@H]1O[C@H](CO)[C@@H](O)[C@H](O)[C@H]1O)C(C)(C)O)[C@H]1CC[C@@]2(C)[C@@H]3CC=C4[C@@H](CC[C@H](O[C@@H]5O[C@H](CO)[C@@H](O)[C@H](O)[C@H]5O)C4(C)C)[C@]3(C)[C@H](O)C[C@]12C [MG IIIE, mogroside III E]
times sweeter than 5% sucrose [1]: less sweet

Molecule: C[C@H](CC[C@@H](O[C@@H]1O[C@H](CO[C@@H]2O[C@H](CO)[C@@H](O)[C@H](O)[C@H]2O)[C@@H](O)[C@H](O)[C@H]1O[C@@H]1O[C@H](CO)[C@@H](O)[C@H](O)[C@H]1O)C(C)(C)O)[C@H]1CC[C@@]2(C)[C@@H]3CC=C4[C@@H](CC[C@H](O[C@@H]5O[C@H](CO)[C@@H](O)[C@H](O)[C@H]5O)C4(C)C)[C@]3(C)[C@H](O)C[C@]12C [SI, siamenoside I]
times sweeter than 5% sucrose [1]: 563 times

Molecule: C[C@H](CC[C@@H](O[C@@H]1O[C@H](CO)[C@@H](O)[C@H](O)[C@H]1O[C@@H]1O[C@H](CO)[C@@H](O)[C@H](O)[C@H]1O)C(C)(C)O)[C@H]1CC[C@@]2(C)[C@H]3CC=C4[C@@H](CC[C@H](O[C@@H]5O[C@H](CO[C@@H]6O[C@H](CO)[C@@H](O)[C@H](O)[C@H]6O)[C@@H](O)[C@H](O)[C@H]5O)C4(C)C)[C@]3(C)[C@H](O)C[C@]12C [MG IV, mogroside IV]
times sweeter than 5% sucrose [1]: 465 times

Molecule: C[C@H](CC[C@@H](O[C@@H]1O[C@H](CO[C@@H]2O[C@H](CO)[C@@H](O)[C@H](O)[C@H]2O)[C@@H](O)[C@H](O)[C@H]1O[C@@H]1O[C@H](CO)[C@@H](O)[C@H](O)[C@H]1O)C(C)(C)O)[C@H]1CC[C@@]2(C)[C@@H]3CC=C4[C@@H](CC[C@H](O[C@@H]5O[C@H](CO[C@@H]6O[C@H](CO)[C@@H](O)[C@H](O)[C@H]6O)[C@@H](O)[C@H](O)[C@H]5O)C4(C)C)[C@]3(C)[C@H](O)C[C@]12C [MG V, mogroside V]
times sweeter than 5% sucrose [1]: 392 times

Kcat [2]: 0.458 ± 0.012 s⁻¹ | Vmax [2]: 9.16 ± 0.247 µmol/min/mg
Molecule: O=[N+]([O-])c1ccccc1O[C@@H]1O[C@H](CO)[C@@H](O)[C@H](O)[C@H]1O [o NPG, o-nitrophenol β-D-glucoside]

B1: recombinant DbExg1 (rDbExg1), Exg1-like β-glucosidase from Dekkera bruxellensis, C-terminal 6xHis (Brettanomyces bruxellensis) (protein)
chain: APIILKKRDWDYTKDKIHGVNIGGWLVLEPYITPSLFETFGDDAPVDEYHYTQQLGKEEASKRLQEHWANWITEKDFEYIANLGLNMVRIPIGYWAFELQDNDPYVQGQQAYLDKALGWAEKNGLKVWIDLHGVPGSQNGFDNSGLRDQIDWQTGSGNVDFTLNVLKEMIEKYSDSDYSDTIIGIELLNEPLGSSLNMDELKVFYSSGYELVRDQDASVPVIIQDAFQSDYYWDDFLNTEQDTNIYGVVVDHHHYQVFSTGELQRDMDTRIQTACNWGKQEGGEYHWNVCGEFSAALTDCAKWLNGLGRGARYDSSYGGGAYVGSCDDLYTYDEDYWNNSDVIKQYRQYVEAQMDAFENGKMGGWVFWCWKTESAVEWDFQRLAGLNVIPQPLDDRLYPNQCSF
Km [3]: 781 ± 4 µM | Vmax [3]: 10.4 µmol/min/mg | kcat [3]: 0.518 s⁻¹ | kcat/Km [3]: 663 M⁻¹ s⁻¹ | Km [4]: 734 ± 2 µM | Vmax [4]: 9.27 µmol/min/mg | kcat [4]: 0.464 ± 0.006 s⁻¹ | kcat/Km [4]: 632 ± 7 M⁻¹ s⁻¹

B2: recombinant ScExg1 (rScExg1), Exg1p of Saccharomyces cerevisiae (Saccharomyces cerevisiae S288C) (protein)
chain: YYDYDHGSLGEPIRGVNIGGWLLLEPYITPSLFEAFRTNDDNDEGIPVDEYHFCQYLGKDLAKSRLQSHWSTFYQEQDFANIASQGFNLVRIPIGYWAFQTLDDDPYVSGLQESYLDQAIGWARNNSLKVWVDLHGAAGSQNGFDNSGLRDSYKFLEDSNLAVTTNVLNYILKKYSAEEYLDTVIGIELINEPLGPVLDMDKMKNDYLAPAYEYLRNNIKSDQVIIIHDAFQPYNYWDDFMTENDGYWGVTIDHHHYQVFASDQLERSIDEHIKVACEWGTGVLNESHWTVCGEFAAALTDCTKWLNSVGFGARYDGSWVNGDQTSSYIGSCANNDDIAYWSDERKENTRRYVEAQLDAFEMRGGWIIWCYKTESSLEWDAQRLMFNGLFPQPLTDRKYPNQCGTISN
optimum temperature [5]: 50 °C | Km [6]: 865 ± 3 µM | Vmax [6]: 11.7 µmol/min/mg | kcat [6]: 0.587 ± 0.018 s⁻¹ | kcat/Km [6]: 679 ± 5 M⁻¹ s⁻¹ | Km [7]: 840 ± 42 µM
